In publication PMC7782793, “Hydroxamic acid-modified peptide microarrays for profiling isozyme-selective interactions and inhibition of histone deacetylases” (Nature Communications, 2021):
Residues, ends and D or L forms follow the SMILES beside them.

Key:
Assay in all cases: Recombinant HDAC µSPOT microarray binding assay;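 on Bottom (Value): Cellulose-bound peptide spots on slides incubated with six HDAC enzyme concentrations, binding intensity read, four-parameter variable-slope fit, EC50 is enzyme concentration giving half-maximal binding, in HEPES buffer pH 7.4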;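 on Bottom (dose-response curve fit): peptide spots on cellulose slides incubated with rising HDAC enzyme concentrations, imaged together, four-parameter logistic fit, EC50 is enzyme concentration giving half-maximal binding signal, two experiments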;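 on Bottom (dose-response fit): slides with spotted peptides incubated with six HDAC concentrations in HEPES buffer pH 7.4, spot intensities fitted by four-parameter logistic, EC50 as enzyme concentration giving half-maximal binding signal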;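 on Bottom: relative spot intensity from the six enzyme-concentration slides imaged together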;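 on HillSlope (Value): Cellulose-bound peptide spots on slides incubated with six HDAC enzyme concentrations, binding intensity read, four-parameter variable-slope fit, EC50 is enzyme concentration giving half-maximal binding, in HEPES buffer pH 7.4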;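 on LogEC50 (M): slides with spotted peptides incubated with six HDAC concentrations in HEPES buffer pH 7.4, spot intensities fitted by four-parameter logistic, EC50 as enzyme concentration giving half-maximal binding signal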;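 on Top (Value): Cellulose-bound peptide spots on slides incubated with six HDAC enzyme concentrations, binding intensity read, four-parameter variable-slope fit, EC50 is enzyme concentration giving half-maximal binding, in HEPES buffer pH 7.4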;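 on Top (dose-response curve fit): peptide spots on cellulose slides incubated with rising HDAC enzyme concentrations, imaged together, four-parameter logistic fit, EC50 is enzyme concentration giving half-maximal binding signal, two experiments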;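 on Top (dose-response fit): slides with spotted peptides incubated with six HDAC concentrations in HEPES buffer pH 7.4, spot intensities fitted by four-parameter logistic, EC50 as enzyme concentration giving half-maximal binding signal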;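 on Top: relative spot intensity from the six enzyme-concentration slides imaged together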
[1] = target: T1, HDAC8 (Homo sapiens, UniProt Q9BY41); details: HDAC8 µSPOT microarray dose-response fit, X = Asuha, sheet Fig. 3 HDAC8; for Bottom: Bottom Value; for HillSlope: HillSlope Value; for Top: Top Value;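 on Bottom: relative spot intensity from the six enzyme-concentration slides imaged together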;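 on Top: relative spot intensity from the six enzyme-concentration slides imaged together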;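 on all read-outs here: peptide µSPOT slides incubated with varying HDAC enzyme concentrations, imaged signal intensity fitted by four-parameter variable-slope regression, EC50 is enzyme concentration giving half-maximal binding, pH 7.4 HEPES buffer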
T1 construct: HDAC8 (full length, C-terminal His tag, BPS Bioscience, cat. #: 50008); purchased BPS Bioscience 50008
T1 sequence (Q9BY41 1-377): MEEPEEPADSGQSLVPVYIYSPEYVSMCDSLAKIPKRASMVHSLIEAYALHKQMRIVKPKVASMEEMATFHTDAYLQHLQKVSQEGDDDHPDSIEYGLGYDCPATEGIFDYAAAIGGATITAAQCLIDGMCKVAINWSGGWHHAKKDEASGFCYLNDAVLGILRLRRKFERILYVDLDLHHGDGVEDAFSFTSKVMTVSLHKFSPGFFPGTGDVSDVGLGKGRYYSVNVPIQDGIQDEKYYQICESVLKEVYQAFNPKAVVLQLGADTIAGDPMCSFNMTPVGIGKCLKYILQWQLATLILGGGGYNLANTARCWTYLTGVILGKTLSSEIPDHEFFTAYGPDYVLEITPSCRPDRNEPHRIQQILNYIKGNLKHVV
Procedure: (§1) Experiments were performed twice, data were obtained with Array Analyze software (Active Motif), and data analysis and representation were performed with the GraphPad Prism 7 software. Outliers were curated manually and data were fitted to nonlinear regression [log(agonist) vs. response—variable slope (four parameters)]. […] Non-sigmoidal curves were denoted as not determined (N.D.) The pEC50 values were determined as the concentration of HDAC enzyme required for half-maximal binding signal.

[2] = target: T2, HDAC3/NCoR2 (Homo sapiens, UniProt O15379); details: HDAC3 µSPOT microarray, Fig. 3, X = Asuha; for HillSlope: Hill slope of dose-response fit; for Bottom (dose-response curve fit): fitted bottom plateau of binding signal; for Top (dose-response curve fit): fitted top plateau of binding signal;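 on all read-outs here: peptide spots on cellulose slides incubated with rising HDAC enzyme concentrations, imaged together, four-parameter logistic fit, EC50 is enzyme concentration giving half-maximal binding signal, two experiments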
T2 construct: HDAC3/NCoR2 (full length, C-terminal His tag, NCoR2 N-terminal GST tag); purchased BPS Bioscience 50003
Procedure: as §1

[3] = target: T3, HDAC1 (Homo sapiens, UniProt Q13547); details: µSPOT microarray, recombinant HDAC1, Fig. 3, X = Asuha; for HillSlope: Hill slope of the binding curve; for Bottom (dose-response fit): fitted bottom plateau of the binding curve; for Top (dose-response fit): fitted top plateau of the binding curve;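 on all read-outs here: slides with spotted peptides incubated with six HDAC concentrations in HEPES buffer pH 7.4, spot intensities fitted by four-parameter logistic, EC50 as enzyme concentration giving half-maximal binding signal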
T3 construct: HDAC1 (full length, C-terminal His tag, C-terminal FLAG tag, BPS Bioscience, cat. #: 50051); FLAG (C); purchased BPS Bioscience 50051

[4] = target: T4, HDAC2 (Homo sapiens, UniProt Q92769); details: HDAC2 microarray dose-response curve fit, X = Asuha, sheet Fig. 3 HDAC2; for Bottom (Value): bottom plateau; for Top (Value): top plateau;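 on all read-outs here: Cellulose-bound peptide spots on slides incubated with six HDAC enzyme concentrations, binding intensity read, four-parameter variable-slope fit, EC50 is enzyme concentration giving half-maximal binding, in HEPES buffer pH 7.4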
T4 construct: HDAC2 (full length, C-terminal His tag, BPS Bioscience, cat. #: 50002); purchased BPS Bioscience 50002
T4 sequence (Q92769 whole entry): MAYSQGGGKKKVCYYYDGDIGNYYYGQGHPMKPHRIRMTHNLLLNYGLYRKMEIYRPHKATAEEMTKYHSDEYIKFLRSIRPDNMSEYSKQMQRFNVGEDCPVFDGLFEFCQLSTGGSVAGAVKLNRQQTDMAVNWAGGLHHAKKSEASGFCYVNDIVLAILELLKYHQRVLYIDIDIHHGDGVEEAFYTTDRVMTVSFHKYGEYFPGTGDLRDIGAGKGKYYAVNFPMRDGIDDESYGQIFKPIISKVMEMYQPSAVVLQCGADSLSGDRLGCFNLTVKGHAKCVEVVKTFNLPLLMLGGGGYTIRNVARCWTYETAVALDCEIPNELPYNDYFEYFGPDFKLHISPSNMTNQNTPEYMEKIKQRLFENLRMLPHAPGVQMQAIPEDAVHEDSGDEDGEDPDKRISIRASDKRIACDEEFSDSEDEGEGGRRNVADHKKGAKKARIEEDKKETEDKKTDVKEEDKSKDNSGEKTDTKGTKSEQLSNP
Procedure: as §1

T3 sequence (Q13547 whole entry): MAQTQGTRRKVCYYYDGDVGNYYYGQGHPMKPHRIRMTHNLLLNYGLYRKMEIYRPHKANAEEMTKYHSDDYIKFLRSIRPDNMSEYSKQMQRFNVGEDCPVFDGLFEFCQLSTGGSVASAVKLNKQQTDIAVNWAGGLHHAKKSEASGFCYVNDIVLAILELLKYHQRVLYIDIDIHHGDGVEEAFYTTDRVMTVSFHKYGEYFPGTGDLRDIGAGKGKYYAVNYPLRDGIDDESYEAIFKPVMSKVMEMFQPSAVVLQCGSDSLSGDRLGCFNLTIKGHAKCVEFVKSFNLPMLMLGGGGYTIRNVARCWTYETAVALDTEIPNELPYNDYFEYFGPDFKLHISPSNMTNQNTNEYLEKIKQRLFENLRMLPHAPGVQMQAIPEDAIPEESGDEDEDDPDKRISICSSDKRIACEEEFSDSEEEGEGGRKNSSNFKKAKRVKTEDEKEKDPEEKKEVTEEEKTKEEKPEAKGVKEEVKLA
T2 sequence (O15379 whole entry): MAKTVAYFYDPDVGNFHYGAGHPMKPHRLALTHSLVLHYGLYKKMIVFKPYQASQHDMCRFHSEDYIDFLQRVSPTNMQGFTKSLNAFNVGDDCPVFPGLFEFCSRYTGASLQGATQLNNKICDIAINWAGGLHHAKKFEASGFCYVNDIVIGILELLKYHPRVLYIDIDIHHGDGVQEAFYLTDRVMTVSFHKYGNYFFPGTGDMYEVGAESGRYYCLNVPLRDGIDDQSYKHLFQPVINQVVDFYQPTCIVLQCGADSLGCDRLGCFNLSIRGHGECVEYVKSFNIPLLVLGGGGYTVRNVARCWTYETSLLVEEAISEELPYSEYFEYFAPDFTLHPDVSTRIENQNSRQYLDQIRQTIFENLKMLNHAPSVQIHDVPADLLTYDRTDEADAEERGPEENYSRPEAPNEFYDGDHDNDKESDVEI
T2 sequence (Q9Y618 389-480 partner limits assumed): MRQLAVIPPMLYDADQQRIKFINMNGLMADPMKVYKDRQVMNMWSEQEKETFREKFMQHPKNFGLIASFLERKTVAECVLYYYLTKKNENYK

| Compound | Bottom [1] | HillSlope [1] | Top [1] | HillSlope [2] | Bottom (dose-response curve fit) [2] | Top (dose-response curve fit) [2] | HillSlope [3] | Bottom (dose-response fit) [3] | Top (dose-response fit) [3] | Bottom (Value) [4] | Top (Value) [4] | HillSlope (Value) [4] | LogEC50 (M) ([3]; values are log10 of EC50 in M) |
| --- | --- | --- | --- | --- | --- | --- | --- | --- | --- | --- | --- | --- | --- |
| CC[C@H](C)[C@H](NC(=O)[C@H](C)NC(=O)[C@H](CC(C)C)NC(=O)[C@H](CCC(N)=O)NC(=O)[C@H](CC(C)C)NC(=O)[C@H](Cc1c[nH]cn1)NC(=O)[C@H](CCCNC(=N)N)NC(=O)[C@@H]1CCCN1C(=O)[C@@H](NC(=O)[C@@H](NC(=O)[C@H](CCCNC(=N)N)NC(=O)[C@@H](NC(C)=O)[C@@H](C)O)[C@@H](C)CC)[C@@H](C)CC)C(=O)N[C@@H](CCCNC(=N)N)C(=O)N[C@@H](CC(N)=O)C(=O)N[C@@H](CC(=O)O)C(=O)N[C@@H](CCC(=O)O)C(N)=O [H2A 76-91] (Ac-TRIIPRHLQLAIRNDE-NH2) | 0.03 | 7.33 | 0.15 | 1.12 | 0.01 | 1.3 | 0.92 | 0.02 | 2.64 | 0.03 | 73.18 | 0.93 | – |
| CC[C@H](C)[C@H](NC(=O)[C@H](CCC(=O)O)NC(=O)[C@H](CCCNC(=N)N)NC(=O)[C@H](CO)NC(=O)[C@@H](NC(=O)[C@@H](NC(=O)[C@@H](NC(C)=O)[C@@H](C)O)[C@@H](C)CC)[C@@H](C)O)C(=O)N[C@@H](CCC(N)=O)C(=O)N[C@H](C(=O)N[C@@H](C)C(=O)N[C@H](C(=O)N[C@@H](CCCNC(=N)N)C(=O)N[C@@H](CC(C)C)C(=O)N[C@@H](CC(C)C)C(=O)N[C@@H](CC(C)C)C(=O)N1CCC[C@H]1C(N)=O)C(C)C)[C@@H](C)O [H2B 88-103] (Ac-TITSREIQTAVRLLLP-NH2) | 0.03 | 10.85 | 0.09 | 1.33 | 0.01 | 0.74 | 1.19 | 0.05 | 1.11 | 0.04 | 0.21 | 1.75 | – |
| H2A 37-52 (GNYSERVGAGAPVYLA; UniProt P04908 38-53, looked up, fragment) | 0.01 | 7.44 | 0.07 | 0.78 | 0 | 0.79 | 0.92 | 0.01 | 6.54 | 0.01 | 3.9 | 0.79 | – |
| H2A 40-55 (AERVGAGAPVYLAAVL; UniProt P0C0S8 41-56, looked up, fragment) | 0.01 | 2.67 | 0.08 | 1.44 | 0 | 0.3 | 0.82 | 0.02 | 5.13 | -0.05 | 0.06 | 0.08 | – |

Next, values leading:

| Bottom [1] | HillSlope [1] | Top [1] | HillSlope [2] | Bottom (dose-response curve fit) [2] | Top (dose-response curve fit) [2] | HillSlope [3] | Bottom (dose-response fit) [3] | Top (dose-response fit) [3] | Bottom (Value) [4] | Top (Value) [4] | HillSlope (Value) [4] | LogEC50 (M) ([3]; values are log10 of EC50 in M) | Compound |
| --- | --- | --- | --- | --- | --- | --- | --- | --- | --- | --- | --- | --- | --- |
| 0.05 | 6.81 | 0.12 | 0.97 | 0.01 | 0.73 | 1 | 0.03 | 1.15 | 0.04 | 3.35 | 1.17 | -7.63 | H2A 16-31 (TRSSRAGLQFPVGRVH; microarray-immobilized; UniProt P0C0S8 17-32, looked up, fragment) |
| 0.05 | 8.22 | 0.14 | 1.37 | 0.02 | 0.67 | 0.75 | 0.02 | 2.31 | 0.04 | 76.12 | 0.81 | – | H2A 19-34 (SRAGLQFPVGRVHRLL; UniProt P04908 20-35, looked up, fragment) |
